Paper PMC4722774, “Characterization of a cold-active esterase from Serratia sp. and improvement of thermostability by directed evolution” (BMC Biotechnology, 2016)

Tests used:
[1] = test system: T1, CC(=O)Oc1ccc([N+](=O)[O-])cc1; assay: purified protein; format: biochemical, Serratia sp. HZ15; settings: pH 8.5, 50 mM Tris-HCl, 10 °C, 0.01-0.3 mM substrate
T1 construct: full-length 302 residues, no signal peptide predicted; GST fusion (pGEX-6P-1) in E. coli BL21 (DE3), GST cut off by 3C protease; ~32 kDa

purified protein = substrate: CC(=O)Oc1ccc([N+](=O)[O-])cc1; assay: purified protein; format: biochemical, Serratia sp. HZ15; settings: pH 8.5, 50 mM Tris-HCl, 10 °C, 0.01-0.3 mM substrate

EstS (Serratia sp. HZ15; A43V/D147N/R116W)
Km [1]: 87.59 ± 2.4 µM
kcat [1]: 2500 s⁻¹
kcat/Km [1]: 2.86e+07 ± 3.7e+06 M⁻¹ s⁻¹

B1: EstS (Serratia sp. HZ15) (protein)
chain: MPLDPQIARFLAEAAQAPAPASLSEMREVAHAGLLALQGEAEASGGVRDGWVTADDGRAIAIRAYTPGGATPGEPLPAMLYAHGGGWCLGSLALYDRPCQALANATGRVILSVDYRLAPEYPYPRPLEDVYQALCGVVERADEWGVDVARMAVGGDSAGGNLAAAVALLARDRKGPQIEHQLLLYPALSRAMDTASYKEYAQGYYLTREVMAFCWNTYLGEADKPQDPYAEPLHAPMLQRLPPATILSCEYDPLRDEAELYAKRLQEAGVAVRCERLPGMVHACIHMLGLTPAARVLFDKVG
notes: full-length 302 residues, no signal peptide predicted; GST fusion (pGEX-6P-1) in E. coli BL21 (DE3), GST cut off by 3C protease; ~32 kDa
Km (purified protein): 74.02 ± 1.9 µM
kcat (purified protein): 2340 s⁻¹
kcat/Km (purified protein): 3.16e+07 ± 3.1e+06 M⁻¹ s⁻¹
